The values that follow come from the nanobody polyreactivity screen of Harvey et al. (2022).

The series can be described thus: yeast display, Sf9 membrane polyspecificity reagent, FACS + sequencing; frameworks hold sequencing errors. Put shortly: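 Sorting gates, low and high (top ~1%), were placed on anti-HA fluorescence to track expression and on streptavidin fluorescence to track reagent binding. A clone's polyreactivity label is taken from the gate it came out of. The reagent was 10% biotinylated, detergent-solubilized Sf9 membrane, applied for 1 hour at 4 °C to galactose-induced yeast display cells.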
As for “QVQLVESGGGLVQAGGSLRLSCAASGNTFYPYAMGWYRQAPGKERELVAAITSSGGSTYYADSVKGRFTISRDNAKNTVYLQMNSLKPEDTAVYYCAADPDWYSPFKYCYWGQGTQVTVSS”, the “polyreactivity (PSR sort gate)” value is given as “low polyreactivity”. With “QVQLVESGGGLVQAGGSLRLSCAASGNTFYRNAMGWYRQAPGKERELVAGISNGGSTNYADSVKGRFTISRDNAKNTVYLQMNSLKPEDTAVYYCAKDEPKVSRAFDYWGQGTQVTVSS” the entry was “low polyreactivity”; with “QVQLVESGGGLVQAGGSLRLSCAASGNTFYRYAMGWYRQAPGKERELVAAITWSGSRTYYADSVKGRFTISRDNAKNTVYLQMNSLKPEDTAVYYCAAPFWYVGPAMDYWGQGTQVTVSS”, “low polyreactivity”. With “QVQLVESGGGLVQAGGSLRLSCAASGNTFYSYAMGWYRQAPGKERELVAAITWGGRTKYADSVKGRFTISRDNAKNTVYLQMNSLKPEDTAVYYCAARLYHGKTKYDYWGQGTQVTVSS” the entry was “high polyreactivity”; with “QVQLVESGGGLVQAGGSLRLSCAASGNTFYTNVMGWYRQAPGKERELVAAITQSGARTYYADSVKGRFTISRDNAKNTVYLQMNSLKPEDTAVYYCASEHYFYRDYPYEFWGQGTQVTVSS”, “high polyreactivity”; with “QVQLVESGGGLVQAGGSLRLSCAASGNTIGVNAMGWYRQAPGKERELVAVITSGGGSTYYADSVKGRFTISRDNAKNTVYLQMNSLKPEDTAVYYCARRSYRLYTLGNGYWGQGTQVTVSS”, “low polyreactivity”. Regarding “QVQLVESGGGLVQAGGSLRLSCAASGNTIIRYAIAWYRQAPGKERELVAAISYSGGRTYYADSVKGRFTISRDNANNTVYLQMNSLKPEDTAVYYCNAASRYGGDYWGQGTQVTVSS”, the “polyreactivity (PSR sort gate)” value is on record as “high polyreactivity”. On to “QVQLVESGGGLVQAGGSLRLSCAASGNTIIRYPMGWYRPAPGKERELVAAISYSGGRTYYADSVKGRFTISRDSAKNTVYLQMNRLKPEDSAVLYCNAASRYGGDYWGQGSQVTVSS”, for which the “polyreactivity (PSR sort gate)” value is “high polyreactivity”. Turning to “QVQLVESGGGLVQAGGSLRLSCAASGNTIKGYAMGLYRQAPGKERELVAAISWSGSSTYYADSVKGRFTISRDNAKYSVYLHKNSVKPEDTAVYYCNRKYLGRYASVYGYGYWGQGTQVTVSS”, the “polyreactivity (PSR sort gate)” value was “high polyreactivity”. The value for “QVQLVESGGGLVQAGGSLRLSCAASGNTIRSYAMGWYRPAPGKERELVAAISGRGGSTYYADSVKGRFTISRDNAKNTVYLEMNSLKPEDTAVNYCAAESRRVNYANDYWGQGTEVTVSS” was “high polyreactivity”; that for “QVQLVESGGGLVQAGGSLRLSCAASGNTLAYYVMGWYRQAPGKERELVAAITSGGTTNYADSVKGRFTISRDNAKNTVYLQMNSLNPEDTAVYYCAGCPSKRPPWLRQGGYDYWGQGTQVTVSS” was “low polyreactivity”. The value for “QVQLVESGGGLVQAGGSLRLSCAASGNTLDAYAMGWYRQAPGKERELVAAITSGGSTYYADSVKGRFTISRDNAKNTVYLQMNILKPEDTAVYYCNADGHPSDPGYDYWGQGTQVTVSS” was “low polyreactivity”; that for “QVQLVESGGGLVQAGGSLRLSCAASGNTSVPYAMGWYRQAPGKERELVARITWSTGRTYYADSVKGRFTISRDNAKNTVYLQMNSLKPEDTAVYYCATEALLPCSGGDYWGQGTQVTVSS” was “low polyreactivity”. For “QVQLVESGGGLVQAGGSLRLSCAASGNTYGRYAMGWYRQAPGKERELVAAISSSGTSTYYADSVKGRFTISRDNAKNTVYLQMNSLKPVDTAVYNCGAVYWTFWGTIASRYDYWGQGTQVTVAS”, the “polyreactivity (PSR sort gate)” value is “high polyreactivity”. With “QVQLVESGGGLVQAGGSLRLSCAASGNTYLNAMGWYRQAPGKERELVAAISKGGADTYYADSVKGRFTISRDNAKNTVYLQMNSLKPEDTAVYYCAADGYADGWWVEYPWTYDYWGQGTQVTVSS” the entry was “low polyreactivity”; with “QVQLVESGGGLVQAGGSLRLSCAASGPIFTSNAMGWYRQAPGKERELVAAISRRGTRTYYADSVKGRFTISRDNAKNTVYLQMNSLKPEDTAVYYCAATTGEQEYYWGQGTQVTVSS”, “high polyreactivity”.

Turning to “QVQLVESGGGLVQAGGSLRLSCAASGPMFTSNAMGWYRQAPGKERELVAAISRRGTRTYYADSVKGRFTISRDIAKHSVYLQMNSLKPEDTAVYYCAATTGEQEDYWGQGTQVTVSS”, the “polyreactivity (PSR sort gate)” value is recorded as “high polyreactivity”.

Take “QVQLVESGGGLVQAGGSLRLSCAASGPTFFYYAMGWYRQAPGKERELVAAIRRSGGRTRYADSVKGRFTISRDNAKNTVYLQMNSLKPEDTAVYYCAADDGTHRRGYDYWGQGTQVTVSS”: the “polyreactivity (PSR sort gate)” value was “low polyreactivity”. With “QVQLVESGGGLVQAGGSLRLSCAASGPTFPFNAMGWYRQAPGKERELVAAISWRDGRTYYADSVKGRFTISRDNAKNTVYLQMNSLKPEDTAVYYCNVVKRRSDWGMDYWGQGTQVTVSS” the entry was “high polyreactivity”.

Regarding “QVQLVESGGGLVQAGGSLRLSCAASGPTFWRNAMGWYRQAPGKEREFVASISRSGGSTYYADSVKGRFTISRDNAKNTVYLQMNSLKPEDTAVYYCAALGVRGYRGPGGQDYNSWGQGTQVTVSS”, the “polyreactivity (PSR sort gate)” value is given as “high polyreactivity”. With “QVQLVESGGGLVQAGGSLRLSCAASGPTYKYNAMGWYRQAPGKEREMVAAISSTGSTNYADSVKGRFTISRDNAKNTVYLQMNSLKPEDTAVYYCAASFYFVQWGWYYYWGQGTQVTVSS” the entry was “low polyreactivity”; with “QVQLVESGGGLVQAGGSLRLSCAASGPTYWPYAMGWYRQAPGKERELVAAITYSGGGTYYADSVKGRFTISRDNAKNTVYLQMNSLKPEDTAVYYCAKYNYPGRPFDYWGQGTQVTVSS”, “low polyreactivity”.

Turning to “QVQLVESGGGLVQAGGSLRLSCAASGQTFGGYAMGWYRQAPGKERELVAAITKRGGNTDYADSVKGRFTISRDKAKNTVYLQMTSLKPEDTAVYYCAASRAVGFGYWGQGTQVTVSS”, the “polyreactivity (PSR sort gate)” value is “high polyreactivity”.

As to “QVQLVESGGGLVQAGGSLRLSCAASGQTFRRYDMGWYRQAPGKEREFVAAITWSTGSTYYADSVKGRFTISRDYAKNTVYLQMNSLKPEDTAGYYCAARSGYFYRYYKYDYWGQGTQVTVSS”, the “polyreactivity (PSR sort gate)” value is “high polyreactivity”.

Turning to “QVQLVESGGGLVQAGGSLRLSCAASGRFFSNNAMGWYRPAPGKERELVAAIDSSGDSTNYADSVKGRFTISRDIAKNTVYLQMNSLKPEDTAVYYCNALQRGRRVWQYLYGYWGQGTQVNVSS”, the “polyreactivity (PSR sort gate)” value is “high polyreactivity”. With “QVQLVESGGGLVQAGGSLRLSCAASGRICDFYSMGWYRQAPGKERELVAAIDSDGSTNYADSVKGRFTISRDNAKNNVYLQMNSLKPEDTAVSYCNADIWAYTYRRYDYWGQGTQVTVSS” the entry was “low polyreactivity”. With “QVQLVESGGGLVQAGGSLRLSCAASGRICGSYAMGWYRQAPGKERELVADISWRGTSTYYADSVKGRFTISRDIAKNTVYLQMNSLKPEDTAVYYCAARGLWPYDYWGQGTQVTVSS” the entry was “low polyreactivity”; with “QVQLVESGGGLVQAGGSLRLSCAASGRICKRNAMGWYRQAPGKERELVAAITWSGGSTYYADSVKGRFTISRDNAKNTVYLQMNSLKPEDTAVYYCAALRVQGDYDYWGQGTQVTVSS”, “high polyreactivity”.

With “QVQLVESGGGLVQAGGSLRLSCAASGRICPGYVMGRYRQAPGKERELVAAITSTGRTYYADSVKGRFTISRDNEKKTVYLQMNSLKPEDTAVYYCAAVRSYYRGYDYWGQGTQVTVSS”, the “polyreactivity (PSR sort gate)” value is given as “high polyreactivity”. With “QVQLVESGGGLVQAGGSLRLSCAASGRIDVSNAMGWYRQAPGKERELVAAITRTGASTYYADSVKGRCTISRDNAKNNVYVQMNSLKPEDSAVYYSDDVWGWPYWVYRYDYWGQGTQVTVSS” the entry was “high polyreactivity”.
